According to the supplement of paper PMC6757056:
± gives the standard deviation of the averaged measurements.

B1: library; a variant is named by its letters at N, in order (parent)
chain: GCUGUCACCGGUGCUUGGUACGUUAUAUUCAGCCGGUCUGAUGAGUCUNNNNNNAGACGAAACAGC

Columns and labels:
(6R,S)-folinic acid [1] = variants of: B1; assay: normalized RNA/DNA level without ligand (relative to sTRSVctl = 100) (log10 (% of sTRSVctl)); HEK293T overexpressing SLC46A1; higher = less ribozyme self-cleavage, higher mRNA level; conditions: without (6R,S)-folinic acid; ligand present: no
Method in brief: (§1)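 Library plasmids encoding reporter-linked ribozyme switches (mCherry, or eGFP for some folinic acid experiments) were transfected into HEK293T at 4 µg per 6-well well. Ligand, when used, was added 1 h before transfection. Total RNA was extracted with EDTA 72 h later, then reverse-transcribed, amplified, barcoded and sequenced. RNA level was RNA reads over DNA reads, divided by a spiked-in non-cleaving control (or the top 25 sequences), ×100, log10; only sequences with ≥100 DNA reads were kept.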

(6R,S)-folinic acid [2] = variants of: B1; assay: normalized RNA/DNA level with ligand (relative to sTRSVctl = 100) (log10 (% of sTRSVctl)); HEK293T overexpressing SLC46A1; ligand concentration (+) RNA-Seq: 6 mM; higher = less ribozyme self-cleavage, higher mRNA level; conditions: with (6R,S)-folinic acid; ligand present: yes
Method in brief: as §1

Row | Variant | normalized RNA/DNA level without ligand (log10) ((6R,S)-folinic acid [1]) | normalized RNA/DNA level with ligand (log10) ((6R,S)-folinic acid [2])
1 | CCCACG | 2.014 ± 0.0016 | 2.03 ± 0.021
2 | CCCGGG | 2.019 ± 0.0077 | 1.987 ± 0.0062
3 | CCCGGC | 2.08 ± 0.037 | 2.02 ± 0.065
4 | CCCGGA | 2.073 ± 0.016 | 2.03 ± 0.061
5 | ACCGGC | 2.1359 ± 0.0014 | 2.085 ± 0.015
6 | ACCGGG | 2.068 ± 0.0057 | 2.06 ± 0.053
7 | ACCGGU | 2.068 ± 0.0071 | 2.052 ± 0.015
8 | ACCGGA | 2.056 ± 0.0065 | 2.042 ± 0.013
9 | CCCCCU | 2.063 ± 0.017 | 2.01 ± 0.037
10 | CCCCCA | 2.023 ± 0.004 | 1.99 ± 0.047
11 | CCCCCG | 2.05 ± 0.023 | 2 ± 0.0065
12 | CCCCCC | 2.0694 ± 0.0015 | 2.02 ± 0.063
13 | GCAGUG | 1.9 ± 0.021 | 2.02 ± 0.038
14 | GCAGUU | 2.03 ± 0.0047 | 2.04 ± 0.053
15 | GCAGUC | 2.046 ± 0.0028 | 2.05 ± 0.048
16 | GCAUCU | 2.054 ± 0.0071 | 2.04 ± 0.058
17 | GCAUCC | 2.059 ± 0.0098 | 2.048 ± 0.0088
18 | GCAUCG | 2.01 ± 0.029 | 2.061 ± 0.011
19 | GCAUCA | 2.023 ± 0.013 | 2.03 ± 0.022
20 | ACCGAU | 1.973 ± 0.0074 | 1.99 ± 0.044
21 | ACCGAC | 2.0415 ± 0.00053 | 2.03 ± 0.058
22 | CCCCGU | 2.05 ± 0.028 | 2.047 ± 0.01
23 | CCCCGG | 2.083 ± 0.0038 | 2.06 ± 0.022
24 | CCCCGC | 2.09 ± 0.0037 | 2.05 ± 0.034

Row | Variant | normalized RNA/DNA level without ligand (log10) ((6R,S)-folinic acid [1]) | normalized RNA/DNA level with ligand (log10) ((6R,S)-folinic acid [2])
25 | UCCGCU | 2.068 ± 0.01 | 2.042 ± 0.015
26 | UCCGCC | 2.03 ± 0.021 | 2.0083 ± 0.00058
27 | UCCGCA | 2.01 ± 0.03 | 2.01 ± 0.063
28 | GCCACG | 1.99 ± 0.04 | 2.03 ± 0.062
29 | GCCACU | 2.022 ± 0.011 | 2.01 ± 0.029
30 | GCCACA | 2.036 ± 0.0076 | 2.026 ± 0.018
31 | GCCACC | 2.0387 ± 0.00018 | 2.01 ± 0.025
32 | UCAGGC | 2.031 ± 0.003 | 2.03 ± 0.057
33 | UCAGUU | 2.008 ± 0.02 | 2 ± 0.049
34 | UCAGUA | 1.98 ± 0.021 | 2 ± 0.046
35 | UCAGUG | 1.78 ± 0.018 | 1.972 ± 0.011
36 | ACAUUA | 2.006 ± 0.017 | 2.02 ± 0.034
37 | ACAUUU | 2 ± 0.024 | 2.019 ± 0.018
38 | ACAUUC | 2.072 ± 0.0067 | 2.027 ± 0.0058
39 | ACAUUG | 1.94 ± 0.032 | 2.024 ± 0.011
40 | ACCGCG | 1.994 ± 0.015 | 2.05 ± 0.017
41 | ACCGCU | 2.07 ± 0.026 | 2.08 ± 0.028
42 | ACCGCC | 2.045 ± 0.02 | 2.05 ± 0.041
43 | ACCGCA | 2.009 ± 0.018 | 2.01 ± 0.024
44 | UCCGUA | 1.96 ± 0.029 | 2.004 ± 0.0049
45 | CCCCUU | 2.06 ± 0.023 | 2.05 ± 0.034
46 | CCCCUC | 2.05 ± 0.023 | 1.99 ± 0.038
47 | UCCCAC | 2.026 ± 0.012 | 2.02 ± 0.043
48 | UCCCAU | 2.003 ± 0.0031 | 1.9973 ± 0.0006

Row | Variant | normalized RNA/DNA level without ligand (log10) ((6R,S)-folinic acid [1]) | normalized RNA/DNA level with ligand (log10) ((6R,S)-folinic acid [2])
49 | UCCCAG | 1.962 ± 0.014 | 2.04 ± 0.03
50 | UCCCAA | 1.981 ± 0.011 | 1.97 ± 0.024
51 | CCAGUC | 2.06 ± 0.0079 | 2.0299 ± 0.00081
52 | CCAGUU | 2.019 ± 0.013 | 2.02 ± 0.05
53 | CCAGUA | 2.027 ± 0.0027 | 2.05 ± 0.044
54 | ACAGGC | 2.03 ± 0.021 | 2.01 ± 0.032
55 | ACAGGA | 1.948 ± 0.011 | 2.03 ± 0.037
56 | UCAUUU | 2.021 ± 0.014 | 2.02 ± 0.047
57 | UCAUUA | 2.003 ± 0.014 | 2.04 ± 0.023
58 | UCAUUC | 2.067 ± 0.013 | 2.07 ± 0.021
59 | CCAGGC | 2.094 ± 0.018 | 2.05 ± 0.026
60 | CCAGGG | 1.99 ± 0.021 | 2.038 ± 0.018
61 | CCAGGU | 2.026 ± 0.0082 | 2.05 ± 0.033
62 | CCAGGA | 1.993 ± 0.00019 | 1.98 ± 0.036
63 | GCCGAU | 2.015 ± 0.007 | 2.05 ± 0.03
64 | GCCGAC | 1.982 ± 0.0078 | 2.04 ± 0.029
65 | UCCGAA | 1.941 ± 0.015 | 1.978 ± 0.019
66 | UCCGAU | 1.96 ± 0.026 | 2 ± 0.038
67 | UCCGAC | 2.029 ± 0.013 | 2.031 ± 0.0089
68 | ACCCAA | 2.02 ± 0.024 | 2.018 ± 0.013
69 | ACCCAU | 2.013 ± 0.01 | 2.01 ± 0.036
70 | ACCCAC | 2.02 ± 0.016 | 2 ± 0.044
71 | ACCCAG | 1.98 ± 0.01 | 2 ± 0.044
72 | GCAUGU | 1.983 ± 0.0026 | 2.02 ± 0.055

Row | Variant | normalized RNA/DNA level without ligand (log10) ((6R,S)-folinic acid [1]) | normalized RNA/DNA level with ligand (log10) ((6R,S)-folinic acid [2])
73 | GCAUGC | 2.025 ± 0.0027 | 1.999 ± 0.0055
74 | GCAUGG | 1.944 ± 0.0075 | 2.04 ± 0.028
75 | CCAUUU | 2.012 ± 0.018 | 2.04 ± 0.036
76 | CCAUUC | 2.045 ± 0.02 | 2.03 ± 0.048
77 | CCAUUA | 1.9907 ± 0.00033 | 2 ± 0.023
78 | CCAUUG | 1.97 ± 0.031 | 2.015 ± 0.0036
79 | UCAUGG | 1.947 ± 0.0059 | 2.03 ± 0.048
80 | UCAUGA | 2.01 ± 0.028 | 2.053 ± 0.019
81 | UCAUGU | 1.942 ± 0.0042 | 2.01 ± 0.039
82 | GCAGCU | 2.03 ± 0.029 | 2.02 ± 0.045
83 | ACAGUA | 1.947 ± 0.0079 | 1.99 ± 0.043
84 | ACAGUU | 2 ± 0.012 | 2.01 ± 0.046
85 | ACAGUC | 2.0723 ± 0.0011 | 2.054 ± 0.0027
86 | ACCAUG | 1.982 ± 0.012 | 2.016 ± 0.0077
87 | ACCAUC | 2.044 ± 0.011 | 2.02 ± 0.04
88 | ACCAUU | 2.02 ± 0.03 | 2.044 ± 0.0061
89 | ACCAUA | 1.988 ± 0.0064 | 2.013 ± 0.019
90 | CCCGAA | 2.029 ± 0.0067 | 2.02 ± 0.056
91 | CCCGAC | 2.043 ± 0.016 | 2.05 ± 0.033
92 | CCCGAU | 2.002 ± 0.016 | 2.017 ± 0.0026
93 | CCCGAG | 1.95 ± 0.0086 | 1.99 ± 0.022
94 | UCCGGU | 2.032 ± 0.019 | 2.02 ± 0.052
95 | UCCGGA | 1.99 ± 0.038 | 2.02 ± 0.063
96 | UCCGGC | 2.08 ± 0.024 | 2.024 ± 0.018

Row | Variant | normalized RNA/DNA level without ligand (log10) ((6R,S)-folinic acid [1]) | normalized RNA/DNA level with ligand (log10) ((6R,S)-folinic acid [2])
97 | UCAGCU | 2.046 ± 0.011 | 2.032 ± 0.0099
98 | CCAUCG | 2.012 ± 0.01 | 2.017 ± 0.014
99 | CCAUCU | 2.071 ± 0.0041 | 2.07 ± 0.035
100 | CCAUCA | 2.026 ± 0.0086 | 2.02 ± 0.05
101 | CCAUCC | 2.094 ± 0.013 | 2.06 ± 0.021
102 | ACAUCU | 2.024 ± 0.011 | 2.03 ± 0.037
103 | ACAUCG | 2.006 ± 0.014 | 2.07 ± 0.027
104 | ACCAAG | 2.0073 ± 0.00077 | 2.009 ± 0.014
105 | ACCAAU | 1.955 ± 0.01 | 2.012 ± 0.0037
106 | ACCAAC | 2.025 ± 0.012 | 2.02 ± 0.029
107 | GCAUAC | 1.9845 ± 0.0011 | 2.03 ± 0.033
108 | GCAUUC | 2.03 ± 0.052 | 2.023 ± 0.0067
109 | GCAUUU | 2.03 ± 0.0026 | 2.04 ± 0.04
110 | GCAUUG | 1.952 ± 0.009 | 2.01 ± 0.011
111 | GCCGCC | 2.024 ± 0.0036 | 2.0189 ± 0.00031
112 | GCCGCA | 2.04 ± 0.027 | 2.044 ± 0.019
113 | GCCGCU | 2.048 ± 0.0044 | 2.04 ± 0.044
114 | GCCGCG | 2.0553 ± 0.00018 | 2.092 ± 0.0094
115 | UCCAGC | 2.035 ± 0.016 | 2.03 ± 0.022
116 | UCCAGU | 1.94 ± 0.029 | 1.99 ± 0.029
